Experimental findings from patent publication US20030223975, “Transcriptional regulation of PTP-1B” (Cold Spring Harbor Laboratory, published 2003) are described below.

Data set [1] deals with T1, YB-1 (B-TEP, purified from Rat1 nuclear extract) (Rattus norvegicus, UniProt P62961 SEQ:1-322). The data set is described as follows: EMSA; 10 ng YB-1; complex supershifted by anti-YB-1; anti-GATA1/GATA2 as controls; 25 C. The conditions noted are these: label: 32P (EMSA) or biotin (pull-down). The protocol:
To further examine the interaction of YB-1 with the PTP1B enhancer, an EMSA was performed using purified YB-1 (10 ng) and the double-stranded DNA ³²P-labelled −155/−132 probe (see methods described above). A YB-1/DNA probe complex was detected by incubating the complex with the anti-YB-1 antibody (see above). Included as controls were anti-GATA1 (sc266X) and anti-GATA2 (sc-9008X) antibodies (Santa Cruz Biotechnology, Inc., Santa Cruz, Calif.). Purified YB-1 was incubated without antibody or separately with each antibody for 1 hour at 4° C., followed by addition of the DNA probe for 20 minutes at 25° C.
For orientation: Mobility shift assays separate free from complexed probe on a gel.

The target in another data set is GST-YB-1 (UniProt P67809 P67809:1-324). The data set can be described thus: EMSA; 1 or 10 ng GST-YB-1; binding shown in figure. The conditions noted are these: tags: N-terminal GST fusion, expressed in E. coli BL21 (plasmid gift of K. Kohno). The text has this:
Complex formation of YB-1 with the PTP1B enhancer was confirmed using purified YB-1 from a different source. Expression plasmids for GST and for GST-YB-1 (gift from Dr. K. Kohno) (see Izumi et al., Nucleic Acids Res. 29:1200-07 (2001)) were each separately transfected into E. coli BL21 cells. Recombinant proteins were expressed and purified (see Frangioni and Neel, Anal. Biochem. 210:179-87 (1993)) and analyzed by SDS-PAGE as shown in FIG. 9B (left panel). The interaction between GST-tagged YB-1 and the PTP1B enhancer probe was analyzed by EMSA. Purified GST or GST-YB-1 proteins (1 or 10 ng) were combined with double-stranded DNA ³²P-labelled probe −167/−132 (see above) in the absence or presence of unlabeled double-stranded DNA probe −167/−132 or the deletion mutant probe −167/−132 (Δ−155/−144) (see above), which were tested as competitors of complex formation.

For data set [2], the target named is T1, YB-1 (B-TEP, purified from Rat1 nuclear …). The data set is described as follows: pulldown; purified on -167/-132 affinity column, eluted at 0.8 M NaCl; complex B in EMSA. Here is the method: To purify proteins within the TEP sequence complexes, nuclear extracts were subjected to SP-Sepharose chromatography followed by DNA-affinity chromatography (FIG. 3A). Nuclear extracts (approximately 50 mg) were obtained from Rat1 cells as described above. The extracts were dialyzed against starting buffer (0.1 M NaCl in 20 mM HEPES pH 7.9, 20 mM NaF, 1 mM Na₃VO₄, 1 mM Na₄P₂O₇, 0.125 μM okadaic acid, 1 mM EDTA, 1 mM EGTA, 1 mM DTT, 0.5 mM PMSF, 1 μg/ml leupeptin, 1 μg/ml aprotinin, 1 μg/ml pepstatin, 0.2% NP-40, 5% glycerol) and then applied to SP Sepharose (20 ml) (Pharmacia Biotech, Piscataway, N.J.) equilibrated with the starting buffer. Proteins were eluted in a stepwise manner with 0.2, 0.3, 0.4, 0.6, and 0.8 M NaCl containing nuclear extraction buffer. Each fraction (5 μl aliquots) was assayed by EMSA using ³²P-labelled probes as described above. Fractions containing Complex B (detected by the ³²P-labeled −167/−132 probe, see FIG. 2B) were dialyzed to 0.2 M NaCl containing starting buffer and then applied to a double-stranded DNA-conjugated affinity column. The sequence of the DNA used for affinity chromatography corresponded to nucleotides −167 to −132 from the transcription start site as follows:
The DNA was biotinylated according to standard methods. […]

T1 sequence (P62961 other isoform, or with tags, fused parts or gaps): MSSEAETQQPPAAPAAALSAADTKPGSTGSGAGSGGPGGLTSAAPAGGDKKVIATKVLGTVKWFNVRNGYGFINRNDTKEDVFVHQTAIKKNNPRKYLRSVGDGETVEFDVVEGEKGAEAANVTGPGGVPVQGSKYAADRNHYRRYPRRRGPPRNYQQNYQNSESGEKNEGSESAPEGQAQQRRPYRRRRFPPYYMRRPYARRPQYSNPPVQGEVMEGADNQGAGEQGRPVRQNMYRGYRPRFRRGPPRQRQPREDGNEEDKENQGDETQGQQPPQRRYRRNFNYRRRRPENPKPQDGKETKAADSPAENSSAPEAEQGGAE
GST-YB-1, sequence (P67809 whole entry, the tested form may be a part, one chain of several): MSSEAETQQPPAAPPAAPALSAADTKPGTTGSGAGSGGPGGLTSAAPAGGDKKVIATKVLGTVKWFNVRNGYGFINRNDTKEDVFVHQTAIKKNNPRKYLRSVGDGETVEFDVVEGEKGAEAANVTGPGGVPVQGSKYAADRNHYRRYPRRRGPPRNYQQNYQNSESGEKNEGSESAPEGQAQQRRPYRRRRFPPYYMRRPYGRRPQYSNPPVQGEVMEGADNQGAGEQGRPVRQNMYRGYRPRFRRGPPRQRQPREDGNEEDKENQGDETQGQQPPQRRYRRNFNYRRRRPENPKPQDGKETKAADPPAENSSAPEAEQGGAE

B1: PTP1B enhancer -155/-132 (dsDNA)
DNA 1: AGATATCTCGCGGTGCTGGGGCCA
DNA 2: TGGCCCCAGCACCGCGAGATATCT
Regarding B1, in data set [1], the binding result was “binds”.

B2: PTP1B enhancer -167/-132 (dsDNA)
DNA 1: ACGCGCGCTATTAGATATCTCGCGGTGCTGGGGCCA
DNA 2: TGGCCCCAGCACCGCGAGATATCTAATAGCGCGCGT
Consider B2, for which the binding result (with GST-YB-1; in data set [2]) was “binds” in each case.
